Measurements as given in paper PMC6650902.

Target: TAF complex (TFIIDΔTBP) (S. cerevisiae) (UniProt P46677)

A topoisomerase I assay on pDrive/RPS5: linking number change (ΔLk) with TAFs and TBP mixed in equimolar amounts before the plasmid (TAF complex alone +1.91) of 0.48 was found for “TATA-box binding protein (TBP), recombinant (from UniProt P13393 1-240) (natural protein)” in this work.
